Drawing on PMC5922973, “Topoisomerase VI senses and exploits both DNA crossings and bends to facilitate strand passage” (eLife, 2018), this text covers Kd for 1 molecule.

The data set has as its target T1, topo VI H2TH-EEE (Methanosarcina mazei, UniProt Q8PUB7;Q8PUB8 1-369;1-621, R263E;K268E;K308E).
T1 sequence 1: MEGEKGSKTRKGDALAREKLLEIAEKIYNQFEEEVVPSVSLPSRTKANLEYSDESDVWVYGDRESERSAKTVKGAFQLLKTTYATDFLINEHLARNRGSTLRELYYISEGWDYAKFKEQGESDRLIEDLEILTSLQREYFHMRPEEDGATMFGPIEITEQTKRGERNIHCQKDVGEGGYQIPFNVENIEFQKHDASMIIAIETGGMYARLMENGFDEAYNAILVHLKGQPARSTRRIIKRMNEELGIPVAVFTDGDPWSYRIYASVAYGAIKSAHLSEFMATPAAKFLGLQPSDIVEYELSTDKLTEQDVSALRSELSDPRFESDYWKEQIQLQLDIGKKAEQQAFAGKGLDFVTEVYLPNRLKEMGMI
T1 sequence 2: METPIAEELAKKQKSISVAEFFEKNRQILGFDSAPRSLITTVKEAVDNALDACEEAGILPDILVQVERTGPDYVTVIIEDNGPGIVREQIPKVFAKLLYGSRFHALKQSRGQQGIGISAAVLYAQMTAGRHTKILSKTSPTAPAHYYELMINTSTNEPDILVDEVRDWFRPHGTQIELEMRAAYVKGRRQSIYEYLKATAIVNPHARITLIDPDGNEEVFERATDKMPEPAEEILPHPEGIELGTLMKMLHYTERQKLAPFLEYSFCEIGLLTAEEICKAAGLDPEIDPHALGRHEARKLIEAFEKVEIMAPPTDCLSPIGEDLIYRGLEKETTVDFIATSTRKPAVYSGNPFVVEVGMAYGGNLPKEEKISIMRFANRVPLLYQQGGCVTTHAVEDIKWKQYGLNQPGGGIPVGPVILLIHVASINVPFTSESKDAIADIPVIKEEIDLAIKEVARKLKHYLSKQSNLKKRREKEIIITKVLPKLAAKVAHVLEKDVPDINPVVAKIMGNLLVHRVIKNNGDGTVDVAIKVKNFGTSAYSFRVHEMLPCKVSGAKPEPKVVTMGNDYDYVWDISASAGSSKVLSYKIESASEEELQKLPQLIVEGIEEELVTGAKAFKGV
In words: fluorescence anisotropy; Hill h 1.6; FA: 20 nM probe, 50 mM K-glutamate, 20 mM HEPES-KOH pH 7.5, 10 mM MgCl2, 5% glycerol, 1 mM TCEP, 0.1 mg/mL BSA; incubated on ice, read at ambient temperature; competition with 100 nM enzyme. The settings on record: protein: recombinant; tags: N-terminal His6-TEV on Top6B, removed; chain copies: 2;2; label: 5'-FAM strand 1; blunt. On the technique in general: In fluorescence polarisation assays a small probe gives low polarisation when free and higher when bound to something large.

B1: 40 bp duplex (dsDNA)
DNA 1: CTATTGAAAAAGGAAGAGTATGAGTATTCAACATTTCCGC
DNA 2: GCGGAAATGTTGAATACTCATACTCTTCCTTTTTCAATAG
The term Kd denotes the equilibrium constant for the complex coming apart. On to B1, for which the Kd was determined as 45 ± 2 nM.
